Laboratory results: patent US20240391954A1, “MC4R AGONIST PEPTIDES” (The Regents of the University of Michigan, priority 2021, published 2024)
Positions of bridges follow the written chain, without caps; N, C: chain ends. Non-standard residues stand in square brackets, D forms with d. NMeW = CN[C@@H](Cc1c[nH]c2ccccc12)C(=O)O; 2Nal = N[C@@H](Cc1ccc2ccccc2c1)C(=O)O; d2Nal = N[C@H](Cc1ccc2ccccc2c1)C(=O)O; NMeH = CN[C@@H](Cc1c[nH]cn1)C(=O)O; Cit = NC(=O)NCCC[C@H](N)C(=O)O; Nle = CCCC[C@H](N)C(=O)O; Aib = CC(C)(N)C(=O)O

B1: CTX-1648 (peptide)
peptide: {CH2CO}-[Aib]R[dF]RWC-NH2
modifications: thioether N-6
SMILES: CC1(C)NC(=O)CSC[C@@H](C(N)=O)NC(=O)[C@H](Cc2c[nH]c3ccccc23)NC(=O)[C@H](CCCNC(=N)N)NC(=O)[C@@H](Cc2ccccc2)NC(=O)[C@H](CCCNC(=N)N)NC1=O
B2: CTX-1643 (peptide)
peptide: {CH2CO}-[dA][Cit][dF]RWC-NH2
modifications: thioether N-6
SMILES: C[C@H]1NC(=O)CSC[C@@H](C(N)=O)NC(=O)[C@H](Cc2c[nH]c3ccccc23)NC(=O)[C@H](CCCNC(=N)N)NC(=O)[C@@H](Cc2ccccc2)NC(=O)[C@H](CCCNC(N)=O)NC1=O
B3: CTX-1649 (peptide)
peptide: {CH2CO}-[Aib][Cit][dF]RWC-NH2
modifications: thioether N-6
SMILES: CC1(C)NC(=O)CSC[C@@H](C(N)=O)NC(=O)[C@H](Cc2c[nH]c3ccccc23)NC(=O)[C@H](CCCNC(=N)N)NC(=O)[C@@H](Cc2ccccc2)NC(=O)[C@H](CCCNC(N)=O)NC1=O
B4: CTX-1654 (peptide)
peptide: {CH2CO}-GR[dF]RFC-NH2
modifications: thioether N-6
SMILES: N=C(N)NCCC[C@@H]1NC(=O)CNC(=O)CSC[C@@H](C(N)=O)NC(=O)[C@H](Cc2ccccc2)NC(=O)[C@H](CCCNC(=N)N)NC(=O)[C@@H](Cc2ccccc2)NC1=O
B5: CTX-1203 (peptide)
peptide: {CH2CO}-[dA][NMeH][dF]R[NMeW]C-NH2
modifications: thioether N-6
SMILES: C[C@H]1NC(=O)CSC[C@@H](C(N)=O)NC(=O)[C@H](Cc2c[nH]c3ccccc23)N(C)C(=O)[C@H](CCCNC(=N)N)NC(=O)[C@@H](Cc2ccccc2)NC(=O)[C@H](Cc2c[nH]cn2)N(C)C1=O
B6: CTX-1657 (peptide)
peptide: {CH2CO}-[dA]R[dF]RFC-NH2
modifications: thioether N-6
SMILES: C[C@H]1NC(=O)CSC[C@@H](C(N)=O)NC(=O)[C@H](Cc2ccccc2)NC(=O)[C@H](CCCNC(=N)N)NC(=O)[C@@H](Cc2ccccc2)NC(=O)[C@H](CCCNC(=N)N)NC1=O
B7: CTX-1653 (peptide)
peptide: {CH2CO}-GH[dF]RFC-NH2
modifications: thioether N-6
SMILES: N=C(N)NCCC[C@@H]1NC(=O)[C@@H](Cc2ccccc2)NC(=O)[C@H](Cc2c[nH]cn2)NC(=O)CNC(=O)CSC[C@@H](C(N)=O)NC(=O)[C@H](Cc2ccccc2)NC1=O
B8: CTX-1650 (peptide)
peptide: {CH2CO}-[Aib]H[dF]RFC-NH2
modifications: thioether N-6
SMILES: CC1(C)NC(=O)CSC[C@@H](C(N)=O)NC(=O)[C@H](Cc2ccccc2)NC(=O)[C@H](CCCNC(=N)N)NC(=O)[C@@H](Cc2ccccc2)NC(=O)[C@H](Cc2c[nH]cn2)NC1=O
B9: CTX-1644 (peptide)
peptide: {CH2CO}-GH[dF]RWC-NH2
modifications: thioether N-6
SMILES: N=C(N)NCCC[C@@H]1NC(=O)[C@@H](Cc2ccccc2)NC(=O)[C@H](Cc2c[nH]cn2)NC(=O)CNC(=O)CSC[C@@H](C(N)=O)NC(=O)[C@H](Cc2c[nH]c3ccccc23)NC1=O
B10: CTX-1645 (peptide)
peptide: {CH2CO}-GR[dF]RWC-NH2
modifications: thioether N-6
SMILES: N=C(N)NCCC[C@@H]1NC(=O)CNC(=O)CSC[C@@H](C(N)=O)NC(=O)[C@H](Cc2c[nH]c3ccccc23)NC(=O)[C@H](CCCNC(=N)N)NC(=O)[C@@H](Cc2ccccc2)NC1=O
B11: CTX-2128 (peptide)
peptide: Ac-[Nle]CH[2Nal]R[dW]CRFG-NH2
modifications: disulfide 2-7
SMILES: CCCC[C@H](NC(C)=O)C(=O)N[C@H]1CSSC[C@@H](C(=O)N[C@@H](CCCNC(=N)N)C(=O)N[C@@H](Cc2ccccc2)C(=O)NCC(N)=O)NC(=O)[C@@H](Cc2c[nH]c3ccccc23)NC(=O)[C@H](CCCNC(=N)N)NC(=O)[C@H](Cc2ccc3ccccc3c2)NC(=O)[C@H](Cc2c[nH]cn2)NC1=O
B12: CTX-1265 (peptide)
peptide: Ac-RC[dA]R[dF]R[dF]C-NH2
modifications: disulfide 2-8
SMILES: CC(=O)N[C@@H](CCCNC(=N)N)C(=O)N[C@H]1CSSC[C@@H](C(N)=O)NC(=O)[C@@H](Cc2ccccc2)NC(=O)[C@H](CCCNC(=N)N)NC(=O)[C@@H](Cc2ccccc2)NC(=O)[C@H](CCCNC(=N)N)NC(=O)[C@@H](C)NC1=O
B13: CTX-1656 (peptide)
peptide: {CH2CO}-[dA]H[dF]RFC-NH2
modifications: thioether N-6
SMILES: C[C@H]1NC(=O)CSC[C@@H](C(N)=O)NC(=O)[C@H](Cc2ccccc2)NC(=O)[C@H](CCCNC(=N)N)NC(=O)[C@@H](Cc2ccccc2)NC(=O)[C@H](Cc2c[nH]cn2)NC1=O
B14: CTX-1647 (peptide)
peptide: {CH2CO}-[Aib]H[dF]RWC-NH2
modifications: thioether N-6
SMILES: CC1(C)NC(=O)CSC[C@@H](C(N)=O)NC(=O)[C@H](Cc2c[nH]c3ccccc23)NC(=O)[C@H](CCCNC(=N)N)NC(=O)[C@@H](Cc2ccccc2)NC(=O)[C@H](Cc2c[nH]cn2)NC1=O
B15: CTX-1651 (peptide)
peptide: {CH2CO}-[Aib]R[dF]RFC-NH2
modifications: thioether N-6
SMILES: CC1(C)NC(=O)CSC[C@@H](C(N)=O)NC(=O)[C@H](Cc2ccccc2)NC(=O)[C@H](CCCNC(=N)N)NC(=O)[C@@H](Cc2ccccc2)NC(=O)[C@H](CCCNC(=N)N)NC1=O
B16: CTX-1646 (peptide)
peptide: {CH2CO}-G[Cit][dF]RWC-NH2
modifications: thioether N-6
SMILES: N=C(N)NCCC[C@@H]1NC(=O)[C@@H](Cc2ccccc2)NC(=O)[C@H](CCCNC(N)=O)NC(=O)CNC(=O)CSC[C@@H](C(N)=O)NC(=O)[C@H](Cc2c[nH]c3ccccc23)NC1=O
B17: CTX-1263 (peptide)
peptide: Ac-RC[dA]R[dF]R[dW]C-NH2
modifications: disulfide 2-8
SMILES: CC(=O)N[C@@H](CCCNC(=N)N)C(=O)N[C@H]1CSSC[C@@H](C(N)=O)NC(=O)[C@@H](Cc2c[nH]c3ccccc23)NC(=O)[C@H](CCCNC(=N)N)NC(=O)[C@@H](Cc2ccccc2)NC(=O)[C@H](CCCNC(=N)N)NC(=O)[C@@H](C)NC1=O
B18: CTX-1267 (peptide)
peptide: Ac-RCAR[dF]RWC-NH2
modifications: disulfide 2-8
SMILES: CC(=O)N[C@@H](CCCNC(=N)N)C(=O)N[C@H]1CSSC[C@@H](C(N)=O)NC(=O)[C@H](Cc2c[nH]c3ccccc23)NC(=O)[C@H](CCCNC(=N)N)NC(=O)[C@@H](Cc2ccccc2)NC(=O)[C@H](CCCNC(=N)N)NC(=O)[C@H](C)NC1=O

target: T1, human MC4R receptor (human, UniProt P32245 1-332); assay: cell-based or functional assay
T1 sequence (P32245 whole entry): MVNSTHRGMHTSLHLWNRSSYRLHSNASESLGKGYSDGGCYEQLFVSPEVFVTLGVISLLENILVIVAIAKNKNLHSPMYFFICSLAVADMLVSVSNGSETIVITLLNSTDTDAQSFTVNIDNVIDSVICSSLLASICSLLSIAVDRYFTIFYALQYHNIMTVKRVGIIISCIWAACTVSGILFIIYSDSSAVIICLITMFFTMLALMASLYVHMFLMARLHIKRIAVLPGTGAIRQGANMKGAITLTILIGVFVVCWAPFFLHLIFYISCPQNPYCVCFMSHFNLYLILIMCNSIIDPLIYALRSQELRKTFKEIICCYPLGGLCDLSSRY

Row | MC4R selectivity vs MC1R | MC4R selectivity vs MC3R | Binder
1 | 13 | 63 | B1
2 | 261 | 133 | B2
3 | 1650 | 72 | B3
4 | 0.62 | 5.41 | B4
5 | 2.32 | 161 | B5
6 | 1.42 | 3.56 | B6
7 | 0.83 | > 8 | B7
8 | 0.95 | 53 | B8
9 | 4.84 | 53 | B9
10 | 9.04 | 42 | B10
11 |  | 0.01 | B11
12 | 0.02 |  | B12
13 | 1 | 1.64 | B13
14 | 3.66 | 30 | B14
15 | 1.45 | > 8 | B15
16 | 0.14 | 0.29 | Ac-RC[dA]R[dF]R[d2Nal]C-NH2 (disulfide 2-8) [CTX-1264]
17 | > 770 | 193 | B16
18 | 1.73 | 1.62 | B17
19 | 0.5 | 4.07 | B18

target: T1, human MC4R receptor; assay: cell-based or functional assay; remark: another data set of the same source

Row | % max activation | cAMP EC50 | Binder
20 | 101% | 0.0011 µM | B1
21 | 111% | 0.019 µM | B2
22 | 97% | 0.0066 µM | B3
23 | 81% | 1.09 µM | B4
24 | 109% | 0.016 µM | B5
25 | 78% | 2.47 µM | B6
26 | 83% | 1.23 µM | B7
27 | 113% | 0.288 µM | B8
28 | 111% | 0.0023 µM | B9
29 | 110% | 0.0016 µM | B10
30 | 87% | 7.21 µM | B11
31 |  | 0.703 µM | B12
32 | 98% | 1.4 µM | B13
33 | 109% | 0.00068 µM | B14
34 | 92% | 1.19 µM | B15
35 | 80% | 0.013 µM | Ac-RC[dA]R[dF]R[d2Nal]C-NH2 (disulfide 2-8) [CTX-1264]
36 | 103% | 0.013 µM | B16
37 | 93% | 0.0065 µM | B17
38 | 96% | 0.003 µM | B18

target: human MC3R (human, UniProt P41968 1-323); assay: cell-based or functional assay
Sequence (P41968 whole entry): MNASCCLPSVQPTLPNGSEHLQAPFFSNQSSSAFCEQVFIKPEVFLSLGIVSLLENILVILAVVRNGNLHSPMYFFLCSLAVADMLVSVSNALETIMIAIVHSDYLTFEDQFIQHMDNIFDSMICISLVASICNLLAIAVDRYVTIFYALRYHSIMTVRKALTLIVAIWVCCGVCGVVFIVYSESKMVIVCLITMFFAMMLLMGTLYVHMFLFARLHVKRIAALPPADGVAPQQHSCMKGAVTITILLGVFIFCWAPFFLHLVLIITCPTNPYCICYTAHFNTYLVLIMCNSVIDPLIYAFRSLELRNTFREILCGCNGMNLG

Row | % max activation | cAMP EC50 | Binder
39 | 91% | 0.072 µM | B1
40 | 81% | 2.55 µM | B2
41 | 79% | 0.479 µM | B3
42 | 43% | 5.89 µM | B4
43 | 107% | 2.61 µM | B5
44 | 30% | 8.81 µM | B6
45 |  | > 10 µM | B7
46 | 125% | 15.2 µM | B8
47 | 107% | 0.12 µM | B9
48 | 97% | 0.068 µM | B10
49 | 99% | 0.039 µM | B11
50 |  | 0.0299 µM | B12
51 | 86% | 2.3 µM | B13
52 | 102% | 0.021 µM | B14
53 |  | > 10 µM | B15
54 | 44% | 0.0037 µM | Ac-RC[dA]R[dF]R[d2Nal]C-NH2 (disulfide 2-8) [CTX-1264]
55 | 70% | 2.42 µM | B16
56 | 69% | 0.011 µM | B17
57 | 40% | 0.012 µM | B18
